First the molecules themselves.
T1: human IL-1α (human, UniProt P01583 113-271)
T1 sequence (looked up): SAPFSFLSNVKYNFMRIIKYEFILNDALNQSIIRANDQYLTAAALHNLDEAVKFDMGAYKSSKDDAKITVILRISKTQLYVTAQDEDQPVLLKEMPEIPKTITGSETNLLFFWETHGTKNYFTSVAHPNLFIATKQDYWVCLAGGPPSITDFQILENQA

B1: ABT1-95-21 (other)
VL: DIQMTQSPSSLSASVGDRVTITCRASQPIVRNLRWYQQKPGKAPKLLIYSSSYLEPGVPSRFSGSGSGTDFTLTISSLQPEDFATYYCQQGYRWPVTFGQGTKVEIKR
notes: VK dAb
B2: ABT1-95-44 (other)
VL: B1 VL with Q27S, Y87H
notes: VK dAb
B3: ABT1-95-107 (other)
VL: B1 VL with P56H, Y87H
notes: VK dAb
B4: ABT1-95-25 (other)
VL: B1 VL with Q89D
notes: VK dAb
B5: ABT1-95-148 (other)
VL: B1 VL with P28T, Y87H
notes: VK dAb
B6: ABT1-95-64 (other)
VL: B1 VL with I48V, Y49H, Y87H, I106V
notes: VK dAb
B7: ABT1-95-85 (other)
VL: B1 VL with S26G, S51G, Y87H, Q89L
notes: VK dAb
B8: ABT1-95-149 (other)
VL: B1 VL with P28A, Y87H
notes: VK dAb
B9: ABT1-95-139 (other)
VL: B1 VL with P28Q, Y87H
notes: VK dAb
B10: ABT1-95-34 (other)
VL: B1 VL with Q27A, Y87H
notes: VK dAb
B11: ABT1-95-29 (other)
VL: B1 VL with R93Q
notes: VK dAb
B12: ABT1-95-160 (other)
VL: B1 VL with Y87H, R93V
notes: VK dAb
B13: ABT1-95-23 (other)
VL: B1 VL with I29T
notes: VK dAb
B14: ABT1-95-30 (other)
VL: B1 VL with G91S
notes: VK dAb
B15: ABT1-95-32 (other)
VL: B1 VL with R93S
notes: VK dAb
B16: ABT1-95-22 (other)
VL: B1 VL with R93H
notes: VK dAb
B17: ABT1-95-33 (other)
VL: B1 VL with Q89R
notes: VK dAb
B18: ABT1-95-28 (other)
VL: B1 VL with R93G
notes: VK dAb
B19: ABT1-95-115 (other)
VL: B1 VL with Y87H, Q89L
notes: VK dAb
B20: ABT1-95-31 (other)
VL: B1 VL with R93L
notes: VK dAb
B21: ABT1-95-24 (other)
VL: B1 VL with Q89C
notes: VK dAb
B22: ABT1-95-27 (other)
VL: B1 VL with G41R, Q89A
notes: VK dAb
B23: ABT1-95-131 (other)
VL: B1 VL with I29T, Y87H
notes: VK dAb
B24: ABT1-95-80 (other)
VL: B1 VL with S51V, Y87H
notes: VK dAb
B25: ABT1-164 (other)
VL: DIQMTQSPSSLSASVGDRVTITCRASRPIAGNLRWYQQKPGKAPKLLIWGASSLQSGVPSRFSGSGSGTDFTLTISSLQPEDFATYYCVQGWQWPITFGQGTKVEIKR
notes: VK dAb
B26: ABT1-163 (other)
VL: DIQMTQSPSSLSASVGDRVTITCRASGNIVHNLRWYQQKPGKAPKLLIYAASRLQSGVPSRFSGSGSGTDFTLTISSLQPEDFATYYCAQGYEWPLTFGQGTKVEIKQ
notes: VK dAb
B27: ABT1-95-92 (other)
VL: B1 VL with Y53T, Y87H
notes: VK dAb
B28: ABT1-95-118 (other)
VL: B1 VL with Y87H, Q89S
notes: VK dAb
B29: ABT1-95-102 (other)
VL: B1 VL with E55Q, Y87H
notes: VK dAb
B30: ABT1-95-116 (other)
VL: B1 VL with Y87H, Q89V
notes: VK dAb
B31: ABT1-95-41 (other)
VL: B1 VL with Q27Y, Y87H
notes: VK dAb
B32: ABT1-95-67 (other)
VL: B1 VL with S50A, Y87H
notes: VK dAb
B33: ABT1-95-122 (other)
VL: B1 VL with T72I, Y87H
notes: VK dAb
B34: ABT1-95-132 (other)
VL: B1 VL with K42I, L78P, Y87H
notes: VK dAb
B35: ABT1-95-117 (other)
VL: B1 VL with T85M, Y87H, Q89V
notes: VK dAb
B36: ABT1-95-161 (other)
VL: B1 VL with Y87H, V96P
notes: VK dAb
B37: ABT1-95-47 (other)
VL: B1 VL with Q27M, Y87H
notes: VK dAb
B38: ABT1-95-26 (other)
VL: B1 VL with Q89G
notes: VK dAb
B39: ABT1-95-121 (other)
VL: B1 VL with Y87H, R93E
notes: VK dAb
B40: ABT1-149 (other)
VL: DIQMTQSPSSLSASVGDRVTITCRASQSISSYLNWYQQKPGKAPKLLIGGLSGLQSGVPSRFSGSGSGTDFTLTISSLQPEDFATYYCMQWWRWPSTFGQGTKVEIKRAAAEQKLISEED
B41: ABT1-6-15 (other)
VH: EVQLLESGGGLVQPGGSLRLSCAASGFTFVRYDMAWVRQAPGKGLEWVSSINKSGALTSYADSVKGRFTISRDNSKNTLYLQMNSLRAEDTAVYYCAKGWASFDYWGQGTLVTVSS
notes: VH dAb
B42: ABT1-6-3 (other)
VH: B41 VH with V30G, R31A, A35Q, N52Y
notes: VH dAb
B43: ABT1-6 (other)
VH: B41 VH with V30G, R31A, A35Q
notes: VH dAb

Where a chain is given by its changes, count along the chain named. A value given as a limit tells only on which side of the number the result lay.

One assay has as its target T1, human IL-1α. Put plainly: cell-based or functional assay.
Turning to B1, the ND50 was determined as 0.61 nM.

B2 registered an ND50 of 0.15 nM.

For B3, the ND50 came to 0.5 nM.

Take B4: the ND50 worked out at 0.43 nM.

As for B5, the ND50 was found to be 0.19 nM.

In the case of B6, the ND50 was 0.438 nM.

As for B7, the ND50 came out at 0.713 nM.

As for B8, the ND50 was 0.064 nM.

In turn, B9 yielded an ND50 of 0.1 nM.

B10 had an ND50 of 1 nM.

Turning to B11, the ND50 came to 1 nM.

Molecule B12 had an ND50 of 0.238 nM.

Molecule B13 returned an ND50 of 0.5 nM.

In turn, B14 yielded an ND50 greater than 10 nM.

In turn, B15 gave an ND50 of 1.2 nM.

As to B16, the ND50 was found to be 1 nM.

As to B17, the ND50 was 1 nM.

B18: the ND50 came out at 2 nM.

B19 displayed an ND50 of 0.23 nM.

With B20, the ND50 worked out at 3.3 nM.

Molecule B21 gave an ND50 of 0.27 nM.

In turn, B22 gave an ND50 of 1 nM.

The molecule B23 gave an ND50 of 0.085 nM.

Molecule B24 returned an ND50 of 0.008 nM.

Molecule B25 had an ND50 of 14 nM.

B26 came in with an ND50 of 105 nM.

On to B27, for which the ND50 came to 0.5 nM.

Consider B28, for which the ND50 was found to be 0.122 nM.

Take B29: the ND50 worked out at 0.184 nM.

On to B30, for which the ND50 was 0.168 nM.

In turn, B31 gave an ND50 of 0.15 nM.

On to B32, for which the ND50 was 0.044 nM.

Take B33: the ND50 is 0.116 nM.

As to B34, the ND50 was 2 nM.

For B35, the ND50 was found to be 0.1 nM.

On to B36, for which the ND50 amounted to 0.5 nM.

In the case of B37, the ND50 is 0.139 nM.

Molecule B38 registered an ND50 of 0.71 nM.

Molecule B39 yielded an ND50 of 0.1 nM.

Consider B40, for which the ND50 amounted to 100 nM.

In turn, B41 came in with an ND50 of 500 nM.

B42: the ND50 was found to be 60 nM.

In turn, B43 returned an ND50 of 3000 nM.

In a further assay the target is T1, human IL-1α. Put plainly: Table 62 IC50; RBA presumed.
The term IC50 denotes the point on the concentration scale where inhibition reaches its midpoint. As for B1, inhibition was half-maximal at 0.5 nM (IC50).

Molecule B2 came in with an IC50 of less than 0.1 nM.

In turn, B3 gave an IC50 of 0.1 nM.

B4 yielded an IC50 of 0.5 nM. Against the preceding molecule, the IC50 is about 5-fold higher.

As for B5, the 50% inhibitory concentration (IC50) was found to be 0.2 nM.

As for B6, the IC50 was 3 nM.

On to B7, for which the half-maximal inhibitory concentration (IC50) was 0.2 nM.

B8 displayed a half-maximal inhibitory concentration (IC50) of 0.2 nM.

For the molecule B9, it took 0.2 nM to reach half-maximal inhibition (IC50). That is a sub-nanomolar value.

Molecule B10 yielded an IC50 of 0.1 nM.

Turning to B11, the IC50 is greater than 0.5 nM.

Take B12: the IC50 came out at 0.1 nM. In other words, the sub-nanomolar range.

B13: the IC50 came to 0.5 nM. This IC50 lies about 5-fold higher than the previous one.

On to B14, for which the IC50 was greater than 1 nM.

B15 had an IC50 greater than 0.5 nM.

As for B16, the IC50 came to 0.5 nM.

The molecule B17 yielded an IC50 of 0.5 nM.

For B18, the 50% inhibitory concentration (IC50) is greater than 0.5 nM.

For the molecule B19, half-maximal inhibition (IC50) was put at 0.2 nM.

Consider B20, for which the IC50 is greater than 0.5 nM.

The molecule B21 gave an IC50 of 0.5 nM.

The molecule B22 yielded a half-maximal inhibitory concentration (IC50) of 0.5 nM.

As to B23, the IC50 is 0.1 nM.

B24: 0.3 nM corresponded to half-maximal inhibition (IC50). This IC50 is about 3-fold higher than that of the molecule before.

The molecule B25 showed an IC50 greater than 1000 nM.

Consider B26, for which the IC50 came out at 1000 nM.

In the case of B27, the IC50 is less than 0.1 nM.

As for B28, the IC50 was 0.2 nM. This lies in the sub-nanomolar range.

For B29, the IC50 was determined as 0.1 nM.

Molecule B30 gave an IC50 of 0.2 nM. Compared with the last molecule, the IC50 is about 2-fold higher.

B31 showed an IC50 of less than 0.1 nM.

Take B32: the IC50 was found to be 0.1 nM.

B33: the IC50 came out at 0.1 nM.

For B34, half-maximal inhibition (IC50) was put at 0.1 nM.

For B35, the IC50 is 0.2 nM.

In turn, B36 returned an IC50 of 0.1 nM.

B37 yielded a half-inhibitory concentration (IC50) of 0.1 nM. This counts as sub-nanomolar.

On to B38, for which inhibition was half-maximal at 0.5 nM (IC50).

B39 registered an IC50 of 0.2 nM.

As for B41, it took 200 nM to reach half-maximal inhibition (IC50).

B42: inhibition was half-maximal at 80 nM (IC50).

With B43, the half-inhibitory concentration (IC50) was 3000 nM.

The values are drawn from patent publication US20090291081A1 (AbbVie / Abbott, published 2009).
